Legend:
anti-GBB5-H9 scFv = assay: ELISA; conditions: chain shown with the change; biotinylated peptides immobilized in streptavidin-coated microtiter plate wells; soluble scFv protein; parent: est. 100; read off a plot
anti-GBB5-A1 scFv = assay: ELISA; conditions: chain shown with the change; biotinylated peptides immobilized in streptavidin-coated microtiter plate wells; soluble scFv protein; parent: est. 100; read off a plot
[1] = biological target: anti-GBB5-H9 scFv-Fc (human); assay: SEC; size exclusion chromatography and denaturing SDS-PAGE of the purified scFv-Fc; conditions not given

anti-GBB5-A1 scFv, sequence (chain, as listed by the source, chain 1 of 2): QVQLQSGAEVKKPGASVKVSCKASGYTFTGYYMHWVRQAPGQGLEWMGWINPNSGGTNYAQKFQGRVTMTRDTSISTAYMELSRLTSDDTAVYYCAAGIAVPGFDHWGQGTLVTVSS
anti-GBB5-A1 scFv, sequence (chain, as listed by the source, chain 2 of 2): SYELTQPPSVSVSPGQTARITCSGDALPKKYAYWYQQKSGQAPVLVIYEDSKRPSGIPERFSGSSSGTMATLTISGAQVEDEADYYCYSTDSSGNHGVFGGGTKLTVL

GSGSKLHDVELHQAAERV [GBB5 peptide (Guanine Nucleotide-Binding Protein Beta 5) V14A]
percent of parent (% signal of wild type) (anti-GBB5-H9 scFv): 55 | percent of parent (% signal of wild type) (anti-GBB5-A1 scFv): 51

GSGSKLHDVELHQVAEAV [GBB5 peptide (Guanine Nucleotide-Binding Protein Beta 5) R13A]
percent of parent (% signal of wild type) (anti-GBB5-H9 scFv): 1.7 | percent of parent (% signal of wild type) (anti-GBB5-A1 scFv): 56

B1: anti-GBB5-H9 scFv-Fc (Fc fusion)
VH: EVQLVQSGGGLVQPGGSLRLSCAASGFTVSSNYMSWVRQAPGKGLEWVSSISSSSSYIYYADSVKGRFTISRDNAKNSLYLQMNSLRAEDTAVYYCARSYPFDYWGQGTLVTVSS
VL: NFMLTQPHSVSESPGKAVTISCTGSSGDVARNYVQWYQQRPGSAPIIVIYEDTQRPSGVPDRFSGSIDSSSNSASLTISGLTTEDEADYYCQSYDGHNVIFGGGTKLTVL
stoichiometry N [1]: 2

GSGSKLHAVELHQVAERV [GBB5 peptide (Guanine Nucleotide-Binding Protein Beta 5) D4A]
percent of parent (% signal of wild type) (anti-GBB5-H9 scFv): 1.9 | percent of parent (% signal of wild type) (anti-GBB5-A1 scFv): 0.3

GSGSALHDVELHQVAERV [GBB5 peptide (Guanine Nucleotide-Binding Protein Beta 5) K1A]
percent of parent (% signal of wild type) (anti-GBB5-H9 scFv): 74 | percent of parent (% signal of wild type) (anti-GBB5-A1 scFv): 0.2

Source: article PMC4406585
